# Measurements from article PMC5118228 (EJNMMI Research, 2016).
# Read-outs that look alike come from different tables or passages of the source.
# System: AR42J tumor-bearing mice
# Conditions: male, athymic nu/nu, mouse, in vivo, iv, 0.3 nmol
structure (smiles),measurement,setting,value
"C[C@@H](O)[C@H](NC(=O)[C@@H]1CSSC[C@H](NC(=O)[C@@H](Cc2ccccc2)NC(=O)CN2CCN(CC(=O)O)CCN(CC(=O)O)CCN(CC(=O)O)CC2)C(=O)N[C@@H](Cc2ccc(O)cc2)C(=O)N[C@H](Cc2c[nH]c3ccccc23)C(=O)N[C@@H](CCCCN)C(=O)N[C@@H]([C@@H](C)O)C(=O)N1)C(=O)O [^111In-DOTATATE, metal not drawn]",Tumor uptake,10 min,6.3 ± 1.3 %IA/g
same,Renal activity,1 h,10.9 ± 0.6 %IA/g
same,Tumor uptake,1 h,6.0 ± 1.2 %IA/g
